Source: US20230391845A1, “GLP-1, GIP AND GLUCAGON RECEPTOR TRIPLE AGONISTS” (priority 2020, published 2023)
Where no end group is shown, it is not given here. [ ]: non-standard residue; d: D form. Aib = CC(C)(N)C(=O)O

T1: human glucose-dependent insulinotropic polypeptide receptor (human, UniProt P48546 22-466)
T1 sequence (looked up): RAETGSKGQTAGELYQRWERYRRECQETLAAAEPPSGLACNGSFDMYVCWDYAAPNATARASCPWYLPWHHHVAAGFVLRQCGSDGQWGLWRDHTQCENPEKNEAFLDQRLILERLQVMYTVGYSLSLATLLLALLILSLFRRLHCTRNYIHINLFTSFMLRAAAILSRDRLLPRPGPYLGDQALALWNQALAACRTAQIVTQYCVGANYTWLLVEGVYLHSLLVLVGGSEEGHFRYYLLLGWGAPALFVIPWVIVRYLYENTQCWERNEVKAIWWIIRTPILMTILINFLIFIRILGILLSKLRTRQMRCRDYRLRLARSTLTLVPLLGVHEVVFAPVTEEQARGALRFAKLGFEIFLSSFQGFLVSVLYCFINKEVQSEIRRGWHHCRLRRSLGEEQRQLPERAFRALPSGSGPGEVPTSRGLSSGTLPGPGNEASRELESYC

B1: Compound No. 6 (peptide)
peptide: Y[Aib]QGTFTSDYSIYLDKQAA[Aib]EFVNWLLAGGPSSGAPPPS-NH2
modifications: not fully specified (residue 16); printed as Y-Aib-QGTFTSDYSIYLD-K[2-[2-[2-[[2-[2-[2-[[(4S)-4-carboxy-4-[[4-[(19-carboxynonadecanoylamino) methyl]cyclohexanecarbonyl]amino]butanoyl]amino]ethoxy ]ethoxy]acetyl]amino]ethoxy]ethoxy]acetyl]-QAA-Aib-EFVNWLLAGGPSSGAPPPS-NH2
B2: Compound No. 15 (peptide)
peptide: Y[Aib]QGTFTSDYSIYLEKQAA[Aib]EFVNWLLAGGPSSGAPPPS-NH2
modifications: not fully specified (residue 16); printed as Y-Aib-QGTFTSDYSIYLE-K[2-[2-[2-[[2-[2-[2-[[(4S)-4-carboxy-4-(19-carboxynonadecanoylamino)butanoyl]amino]ethoxy]ethoxy]acetyl]amino]ethoxy]ethoxy]acetyl]-QAA-Aib-EFVNWLLAGGPSSGAPPPS-NH2
B3: Compound No. 5 (peptide)
peptide: Y[Aib]QGTFTSDYSIYLDKQAA[Aib]EFVNWLLAGGPSSGAPPPS-NH2
modifications: not fully specified (residue 16); printed as Y-Aib-QGTFTSDYSIYLD-K[2-[2-[2-[2-[2-[2-[[[(4S)-4-carboxy-4-(19-carboxynonadecanoylamino) butanoyl]amino]ethoxy]ethoxy]acetyl]amino]ethoxy]ethoxy]acetyl]-QAA-Aib-EFVNWLLAGGPSSGAPPPS-NH2
B4: Compound No. 12 (peptide)
peptide: Y[Aib]QGTFTSDYSIYLEKQAA[Aib]EFVNWLLAGGPSSGAPPPS-NH2
modifications: not fully specified (residue 16); printed as Y-Aib-QGTFTSDYSIYLE-K[2-[2-[2-[[2-[2-[2-[[(4S)-4-carboxy-4-[[4-[(19-carboxynonadecanoylamino)methyl]cyclohexanecarbonyl]amino]butanoyl]amino]ethoxy]ethoxy]acetyl]amino]ethoxy]ethoxy]acetyl]-QAA-Aib-EFVNWLLAGGPSSGAPPPS-NH2
B5: Compound No. 7 (peptide)
peptide: Y[Aib]QGTFTSDYSIYLDKQAA[Aib]KFVQWLLEGGPSSGAPPPS-NH2
modifications: not fully specified (residue 21); printed as Y-Aib-QGTFTSDYSIYLDKQAA-Aib-K[2-[2-[2-[[2-[2-[2-11(4S)-4-carboxy-4-(19-carboxynonadecanoylamino)butanoyl]amino]ethoxy]ethoxy]acetyl]amino]ethoxy]ethoxy]acetyl]-FVQWLLEGGPSSGAPPPS-NH2
B6: Compound No. 9 (peptide)
peptide: Y[Aib]QGTFTSDYSIYLDKKAA[Aib]EFVNWLLAGGPSSGAPPPS-NH2
modifications: not fully specified (residue 17); printed as Y-Aib-QGTFTSDYSIYLDK-K[2-[2-[2-[[2-[2-[2-[[(4S)-4-carboxy-4-(19-carboxynonadecanoylamino)butanoyl]amino]ethoxy]ethoxy]acetyl]amino]ethoxy]ethoxy]acetyl]-AA-Aib-EFVNWLLAGGPSSGAPPPS-NH2
B7: Compound No. 13 (peptide)
peptide: Y[Aib]QGTFTSDYSIYLEKQAA[Aib]EFVNWLLAGGPSSGAPPPS-NH2
modifications: not fully specified (residue 16); printed as Y-Aib-QGTFTSDYSIYLE-K[(2S)-2-amino-6-[[(2S)-2-amino-6-[[(4S)-4-carboxy-4-[[4-[(19-carboxynonadecanoylamino)methyl]cyclohexanecarbonyl]amino]butanoyl]amino]hexanoyl]amino]hexanoyl]-QAA-Aib-EFVNWLLAGGPSSGAPPPS-NH2
B8: Compound No. 10 (peptide)
peptide: Y[Aib]QGTFTSDYSIYLDKKAA[Aib]EFVNWLLAGGPSSGAPPPS-NH2
modifications: not fully specified (residue 17); printed as Y-Aib-QGTFTSDYSIYLDK-K[2-[2-[2-[[2-[2-[2-[[(4S)-4-carboxy-4-[[4-[(19-carboxynonadecanoylamino)methyl]cyclohexanecarbonyl]amino]butanoyl]amino]ethoxy]ethoxy]acetyl]amino]ethoxy]ethoxy]acetyl]-AA-Aib-EFVNWLLAGGPSSGAPPPS-NH2
B9: Compound No. 8 (peptide)
peptide: Y[Aib]QGTFTSDYSIYLDKQAA[Aib]KFVQWLLEGGPSSGAPPPS-NH2
modifications: not fully specified (residue 21); printed as Y-Aib-QGTFTSDYSIYLDKQAA-Aib-K[2-[2-[2-[[2-[2-[2-[[(4S)-4-carboxy-4-[[4-[(19-carboxynonadecanoylamino)methyl]cyclohexanecarbonyl]amino]butanoyl]amino]ethoxy]ethoxy]acetyl]amino]ethoxy]ethoxy]acetyl]-FVQWLLEGGPSSGAPPPS-NH2
B10: Compound No. 14 (peptide)
peptide: Y[Aib]QGTFTSDYSIYLEKQAA[Aib]EFVQWLLEGGPSSGAPPPS-NH2
modifications: not fully specified (residue 16); printed as Y-Aib-QGTFTSDYSIYLE-K[2-[2-[2-[[2-[2-[2-[[(4S)-4-carboxy-4-[[4-[(19-carboxynonadecanoylamino)methyl]cyclohexanecarbonyl]amino]butanoyl]amino]ethoxy]ethoxy]acetyl]amino]ethoxy]ethoxy]acetyl]-QAA-Aib-EFVQWLLEGGPSSGAPPPS-NH2

How the values were obtained:
Assay in all cases: cell-based or functional assay
[1] = target: human glucagon-like peptide 1 receptor (human, UniProt P43220 24-463)
[2] = target: T1, human glucose-dependent insulinotropic …
[3] = target: human glucagon receptor (human, UniProt P47871 26-477)
human glucagon receptor, sequence (P47871 26-477): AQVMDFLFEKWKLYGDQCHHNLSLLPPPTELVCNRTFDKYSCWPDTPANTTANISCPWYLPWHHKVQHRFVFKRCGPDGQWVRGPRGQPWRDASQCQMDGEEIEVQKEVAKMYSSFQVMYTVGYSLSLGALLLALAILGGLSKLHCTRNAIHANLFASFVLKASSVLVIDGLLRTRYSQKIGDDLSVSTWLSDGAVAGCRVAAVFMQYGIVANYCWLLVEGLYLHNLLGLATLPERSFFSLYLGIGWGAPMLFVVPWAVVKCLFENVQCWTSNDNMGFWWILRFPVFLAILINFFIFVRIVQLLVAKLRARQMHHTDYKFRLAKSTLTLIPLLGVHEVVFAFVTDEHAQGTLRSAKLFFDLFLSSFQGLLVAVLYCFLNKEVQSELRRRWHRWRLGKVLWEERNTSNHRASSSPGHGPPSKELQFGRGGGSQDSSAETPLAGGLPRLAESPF

Binder	hGLP-1R CRE Luc EC50 (pM) [1]	hGIPR CRE Luc EC50 (pM) [2]	hGcgR CRE Luc EC50 (pM) [3]
B1	5.1 pM	7.7 pM	216 pM
B2	1.4 pM	4.8 pM	267 pM
B3	7.2 pM	20.6 pM	205 pM
B4	2.4 pM	1.8 pM	239 pM
Y[Aib]QGTFTSDYSIYLEKQAA[Aib]KFVQWLLEGGPSSGAPPPS-NH2 (not fully specified (residue 21)) [Compound No. 11]	4.3 pM	7.9 pM	129 pM
B5	8.2 pM	65.5 pM	61.3 pM
B6	4.4 pM	48.6 pM	116 pM
B7	2.8 pM	2.1 pM	157 pM
B8	4.7 pM	27.6 pM	250 pM
B9	12.1 pM	45.5 pM	91.9 pM
B10	4.3 pM	4.2 pM	287 pM
